Here are results for one molecule from patent US20120165204A1 (UNIVERSITY OF NORTH CAROLINA AT CHAPEL HILL, published 2012).

In the test the target is T1, 546-4 T17N (LOV2 carries non-covalent FMN; the Rac1 C-terminal CAAX box may be prenylated and trimmed in cells).
T1 construct: only the lane label names it
Description: pull-down (CoIP) with FLAG-tagged PAK1 co-expressed in HEK 293 cells, FLAG/M2-agarose, in the dark; Western blot.
Description: The cells were lysed in 50 mM Tris pH 7.5, 150 mM NaCl, and 1% Triton X-100 (lysis buffer) with addition of EDTA-free protease inhibitor cocktail (Roche). After brief centrifugation, the supernatants were incubated with FLAG/M2-agarose (Sigma) followed by washes with lysis buffer, and elution with lysis buffer containing 200 μg/ml 3× FLAG peptide (Sigma). All procedures were done at 4° C. under red light, facilitated using Handee spin columns (Pierce).

B1: FLAG-tagged PAK1 (enzyme, UniProt Q13153 1-545, looked up)
chain: MSNNGLDIQDKPPAPPMRNTSTMIGAGSKDAGTLNHGSKPLPPNPEEKKKKDRFYRSILPGDKTNKKKEKERPEISLPSDFEHTIHVGFDAVTGEFTGMPEQWARLLQTSNITKSEQKKNPQAVLDVLEFYNSKKTSNSQKYMSFTDKSAEDYNSSNALNVKAVSETPAVPPVSEDEDDDDDDATPPPVIAPRPEHTKSVYTRSVIEPLPVTPTRDVATSPISPTENNTTPPDALTRNTEKQKKKPKMSDEEILEKLRSIVSVGDPKKKYTRFEKIGQGASGTVYTAMDVATGQEVAIKQMNLQQQPKKELIINEILVMRENKNPNIVNYLDSYLVGDELWVVMEYLAGGSLTDVVTETCMDEGQIAAVCRECLQALEFLHSNQVIHRDIKSDNILLGMDGSVKLTDFGFCAQITPEQSKRSTMVGTPYWMAPEVVTRKAYGPKVDIWSLGIMAIEMIEGEPPYLNENPLRALYLIATNGTPELQNPEKLSAIFRDFLNRCLEMDVEKRGSAKELLQHQFLKIAKPLSSLTPLIAAAKEATKNNH
notes: Bait of the pull-down assays (FLAG/M2-agarose); not shown: FLAG tag
On to B1, for which the binding result is given as “no binding”.
